Consider twelve molecules from PMC10657439 (Cell Death and Differentiation, 2023).

The target in series [1] is Fas (CD95), endogenous on human cells (human (endogenous in OVCAR3, Jurkat, PBMC-derived T cells)) (UniProt P25445).
Another series addresses His-Fas^R87A (human). As to the kind of experiment: ELISA.
Series [2] concerns the target His-Fas (His-tagged human Fas extracellular domain, wild type) (human). As to the kind of experiment: ELISA.
For series [3], the target named is Fas R86A mutant tested for E09 binding (human) (UniProt P25445). As to the kind of experiment: ELISA.
In series [4] the target is T1, Fc-tagged Fas (recombinant extracellular domain of Fas with a C-terminal Fc) (human, UniProt P25445 26-173).
T1 construct: human Fas (CD95) extracellular domain; also called Fas-IgG1 Fc; IgG4-Fc-tagged Fas; source: FreeStyle CHO-S cells, purified (protein A columns); not shown: Fc (IgG4 in the methods, IgG1 in the results), C-terminal, kept
T1 sequence (looked up): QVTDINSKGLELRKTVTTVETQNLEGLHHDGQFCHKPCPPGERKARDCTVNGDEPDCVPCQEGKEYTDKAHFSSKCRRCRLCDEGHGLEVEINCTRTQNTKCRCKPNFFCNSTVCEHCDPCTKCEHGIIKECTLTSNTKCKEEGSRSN
As to the kind of experiment: ELISA; Fc-tagged Fas (2 μg/ml) coated on 96-well plates; His-tagged FasL (single or tandem) in 2-fold dilutions from 50 to 0.048 nM, 1 h at 37 °C. The settings on record: both partners purified. On the technique in general: In an ELISA, binding on a coated surface is turned into a signal by an enzyme label.

Series [5] deals with the molecule itself. As to the kind of experiment: non-reducing, partially denaturing SDS-PAGE with anti-His immunoblot; purified His-tagged FasL added to Jurkat cells in culture wells, 30 min; soup and total lysates together; FasL trimer formation.
In series [6] the target is T2, His-Fas (His-tagged human Fas extracellular domain, wild type) (human).
T2 chain: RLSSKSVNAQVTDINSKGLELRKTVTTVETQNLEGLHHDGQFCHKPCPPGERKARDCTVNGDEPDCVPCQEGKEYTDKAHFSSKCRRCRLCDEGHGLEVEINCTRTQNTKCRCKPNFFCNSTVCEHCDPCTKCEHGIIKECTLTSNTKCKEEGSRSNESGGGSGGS
Description: BLI. Background: In BLI a coated tip is dipped into the sample, and binding shifts an interference pattern.

Series [7] deals with T2, His-Fas (His-tagged human Fas …). Description: BLI.

Take “His_FasL^TL1A (His-tagged FasL with the cognate region of TL1A, DTYGIV to HELGLA) (ligand)”: the cytotoxic activity against T cells (cell survival assay, Fig. 3F, G) in series [1] is above 70%.

Take CH11 IgG1: the Kd in the series with His-Fas^R87A (human) was found to be 2.2 nM; in series [2], 0.983 nM; in series [3], 2.02 nM.

B1: His_FasL^WT (N-terminal His-tagged human FasL, wild type) (ligand)
chain: GGSPSPPPEKKELRKVAHLTGKSNSRSMPLEWEDTYGIVLLSGVKYKKGGLVINETGLYFVYSKVYFRGQSCNNLPLSHKVYMRNSKYPQDLVMMEGKMMSYCTTGQMWARSSYLGAVFNLTSADHLYVNVSELSLVNFEESQTFFGLYKL
notes: linker between the His tag and FasL; also called WT FasL; His-tagged FasL; source: FreeStyle CHO-S cells, transfected, purified (Ni-Sepharose HisTrap); not shown: His7, N-terminal, kept
Regarding B1, the binding result in series [4] is “binds”. Also, the “stoichiometry N” value in series [5] was determined as 3.

B2: His_FasL^D164A (printed as His_FasL^D163A in Table 1) (ligand, human)
chain: GGSPSPPPEKKELRKVAHLTGKSNSRSMPLEWEATYGIVLLSGVKYKKGGLVINETGLYFVYSKVYFRGQSCNNLPLSHKVYMRNSKYPQDLVMMEGKMMSYCTTGQMWARSSYLGAVFNLTSADHLYVNVSELSLVNFEESQTFFGLYKL
notes: linker between the His tag and FasL; source: FreeStyle CHO-S cells, transfected, purified (Ni-Sepharose HisTrap); not shown: His7, N-terminal, kept
Take B2: in series [4], the binding result is reported as “binds”.

B3: His_FasL^R156G (ALPS mutation) (ligand, human)
chain: GGSPSPPPEKKELRKVAHLTGKSNSGSMPLEWEDTYGIVLLSGVKYKKGGLVINETGLYFVYSKVYFRGQSCNNLPLSHKVYMRNSKYPQDLVMMEGKMMSYCTTGQMWARSSYLGAVFNLTSADHLYVNVSELSLVNFEESQTFFGLYKL
notes: as for B2
Turning to B3, the binding result in series [4] is listed as “binds”.

B4: His_FasL^E270A (ligand, human)
chain: GGSPSPPPEKKELRKVAHLTGKSNSRSMPLEWEDTYGIVLLSGVKYKKGGLVINETGLYFVYSKVYFRGQSCNNLPLSHKVYMRNSKYPQDLVMMEGKMMSYCTTGQMWARSSYLGAVFNLTSADHLYVNVSELSLVNFAESQTFFGLYKL
notes: as for B2
Turning to B4, in series [4], the binding result is recorded as “binds”.

B5: His_FasL^E271A (ligand, human)
chain: GGSPSPPPEKKELRKVAHLTGKSNSRSMPLEWEDTYGIVLLSGVKYKKGGLVINETGLYFVYSKVYFRGQSCNNLPLSHKVYMRNSKYPQDLVMMEGKMMSYCTTGQMWARSSYLGAVFNLTSADHLYVNVSELSLVNFEASQTFFGLYKL
notes: linker between the His tag and FasL; also called A271; source: FreeStyle CHO-S cells, transfected, purified (Ni-Sepharose HisTrap); not shown: His7, N-terminal, kept
With B5, in series [5], the “stoichiometry N” value stood at 3.

B6: His_FasL^E163A (ligand, human)
chain: GGSPSPPPEKKELRKVAHLTGKSNSRSMPLEWADTYGIVLLSGVKYKKGGLVINETGLYFVYSKVYFRGQSCNNLPLSHKVYMRNSKYPQDLVMMEGKMMSYCTTGQMWARSSYLGAVFNLTSADHLYVNVSELSLVNFEESQTFFGLYKL
notes: linker between the His tag and FasL; also called A163; source: FreeStyle CHO-S cells, transfected, purified (Ni-Sepharose HisTrap); not shown: His7, N-terminal, kept
Consider B6, for which the “stoichiometry N” value in series [5] worked out at 3.

B7: DB-FasL (protein)
chain: PSPPPEKKELRKVAHLTGKSNSRSMPLEWEDTYGIVLLSGVKYKKGGLVINETGLYFVYSKVYFRGQSCNNLPLSHKVYMRNSKYPQDLVMMEGKMMSYCTTGQMWARSSYLGAVFNLTSADHLYVNVSELSLVNFEESQTFFGLYKL
modifications: Wild-type FasL ectodomain fused to the C-terminus (CH3) of the idarucizumab (anti-dabigatran) IgG1 heavy chain, one FasL per heavy chain. The IgG carrier and linker are left out because they do not bind Fas. Limits are taken from the sister constructs His-FasL WT and E09-FasL WT printed in the tables (PSPPPEKKEL...GLYKL).
The molecule B7 had a koff in series [6] of 0.0049 s⁻¹. Also, in series [7], the Kd was found to be 60.6 nM.

B8: His_FasL^WT-A247E (tandem: wild-type FasL unit and A247E unit) (ligand, human)
chain: GGSPSPPPEKKELRKVAHLTGKSNSRSMPLEWEDTYGIVLLSGVKYKKGGLVINETGLYFVYSKVYFRGQSCNNLPLSHKVYMRNSKYPQDLVMMEGKMMSYCTTGQMWARSSYLGAVFNLTSADHLYVNVSELSLVNFEESQTFFGLYKLGGGSGGGSGGGSPSPPPEKKELRKVAHLTGKSNSRSMPLEWEDTYGIVLLSGVKYKKGGLVINETGLYFVYSKVYFRGQSCNNLPLSHKVYMRNSKYPQDLVMMEGKMMSYCTTGQMWARSSYLGEVFNLTSADHLYVNVSELSLVNFEESQTFFGLYKL
notes: linker between the His tag and the first FasL unit; linker between the two FasL units; source: CHO expression system, purified (HisTrap Ni Sepharose); not shown: His7, N-terminal, kept
Turning to B8, the binding result in series [4] is “binds”.

B9: His_FasL^WT-G277S (tandem: wild-type FasL unit and G277S unit) (ligand, human)
chain: GGSPSPPPEKKELRKVAHLTGKSNSRSMPLEWEDTYGIVLLSGVKYKKGGLVINETGLYFVYSKVYFRGQSCNNLPLSHKVYMRNSKYPQDLVMMEGKMMSYCTTGQMWARSSYLGAVFNLTSADHLYVNVSELSLVNFEESQTFFGLYKLGGGSGGGSGGGSPSPPPEKKELRKVAHLTGKSNSRSMPLEWEDTYGIVLLSGVKYKKGGLVINETGLYFVYSKVYFRGQSCNNLPLSHKVYMRNSKYPQDLVMMEGKMMSYCTTGQMWARSSYLGAVFNLTSADHLYVNVSELSLVNFEESQTFFSLYKL
notes: as for B8
For the molecule B9, the binding result in series [4] was “binds”.

B10: E09 IgG1 (preclinical Fas agonist antibody) (antibody, V domains shown)
VH: QLQLQESGPGLVKPSETLSLTCTVSGASISANSYYGVWVRQSPGKGLEWVGSIAYRGNSNSGSTYYNPSLKSRATVSVDTSKNQVSLRLTSVTAADTALYYCARRQLLDDGTGYQWAAFDVWGQGTMVTVSS
VL: QSVLTQPPSVSEAPRQTVTISCSGNSFNIGRYPVNWYQQLPGKAPKLLIYYNNLRFSGVSDRFSGSKSGTSASLAIRDLLSEDEADYYCSTWDDTLKGWVFGGGTKVTVLG
B10 registered a dissociation constant (Kd) in series [7] of 0.377 nM.

The term Kd denotes the concentration at which binding is half-saturated. Higher therefore signals lower affinity. For orientation: stoichiometry N means a count of units in the complex or per binding partner. For orientation: koff means a measure of how fast the partners let go of each other. High values mean a short-lived complex, low ones a long-lived complex.
